Experimental data from publication PMC10632791.

molecular target: T1, DegU (Bacillus velezensis DMW1) (UniProt A3KLC2); experiment: EMSA; conditions: MST: 50 mM Tris pH 7.5, 150 mM NaCl, 10 mM MgCl2, 0.05% Tween 20, 25 C
T1 sequence: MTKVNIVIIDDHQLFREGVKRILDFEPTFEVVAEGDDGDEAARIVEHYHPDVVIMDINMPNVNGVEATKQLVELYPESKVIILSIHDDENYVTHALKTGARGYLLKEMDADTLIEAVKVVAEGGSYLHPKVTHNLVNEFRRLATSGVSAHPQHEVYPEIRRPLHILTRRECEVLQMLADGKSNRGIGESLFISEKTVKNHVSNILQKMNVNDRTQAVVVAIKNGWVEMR

“AGTGCTCTATGTAAAATAGAGTGCTTTTTTTGCGGTTTAATGAAATCATATTGCGAACATTCGGACCGTCTGTTTCGGTTCTTGCGCTGTTTTTTCCGGGTCAGCTTACGTACGTAAATTTTTTTCATTCTGCCATAACTGGATATTTGACAGATTTTCATTATAGTTTAAAGATTTTTAATTTTACGTAAATAATATTTTTGAAAATAAATTGCGGGATGCCGCAAAATACCCTCTGGATTCGTCGGATTTTTTTTCGGTGTGCCGCATGAAACTTTTCACCCATTTTTCG (double strand) [P01 (srfA promoter -328 to -36)]” was tested, and the binding was “no binding”.
For “ATGTGTGCGCCTCCCCTTTTTAAGATAAAGTTGTCAATTCTCCCTTAGAAACAGCCTCCCTCTATGTCCCTAACTCATTCTCAAGCCAAAAGAACCACTTACCTCCAAAAACGATCCCGATTCAATCACCGCCGAAATCCGTCATCCGTTCACCCGCGCAGTCCGAAATGCGGCATCAAATTTATGAGAAATCAAGACAAAAAGCCATTGATTGTAAGCACGAAAGGTTTACCTATTTCTGCATGTATTTCTATATATCTACTTACGTTCACTTTATATGAAAATATTGTTTTTATCAC (double strand) [P02 (srfA promoter -35 to +263)]”, the binding was “binds”.

system: DegU (Bacillus velezensis DMW1); experiment: MST; conditions: MST: 50 mM Tris pH 7.5, 150 mM NaCl, 10 mM MgCl2, 0.05% Tween 20, 25 C

pbae and pdfn are within 1.5-fold of each other in Kd: 110 nM for the first, 140 nM for the second.

Compared with pfen, pitu is 39-fold lower in Kd: 1170 nM for the first, 30 nM for the second. The second binds more tightly here.

Going from pmln to psrfA, the Kd rises from 130 nM to 670 nM (5.2-fold). The first binds more tightly here.
